Results published in patent publication US20190002549A1 (I MAB BIOPHARMA, published 2019).

B1: 23F4 (antibody, V domains shown)
VH: QVQLQQSGPELVKPGTSMKISCKTSDYTLTSHYLHWVKQRPGQGLEWIGWIFPGDDKTKYNEKFKGKATLTSDKTSNTAYMQLSSLTSEESAVYFCARGTKYLNWNFDVWGTGTTVTVSS
VL: DIVLTQPQKFLSTSVGDRVSVTCKANQNVGTTLAWYQQKPGQSPKALIYSASYRYSGVPDRFTGSGSGTDFTLTISNVQSEDLAEYFCHQYTTYPLTFGGGTKLEIK
notes: Mouse monoclonal antibody from a hybridoma; also called 23F4 antibody; murine antibody 23F4
B2: 50C5 (antibody, V domains shown)
VH: QVQLQQSAAELVRPGASVKMSCKASGYIFTPYSIHWIKQRPGQGLEWIGYINPSTGYIEYNQHFKDRTTLTADKSSSTAYMQLRSLTSEDSAVYYCARGGDYEGYFDYWGQGTTLTVSS
VL: DIQMTQSPDSLSASVGETVTITCRLNENIYSFLAWYQQRQGKSPQLLVYNAETLAEDVPSRFSGSGSGTQFSLKISSLQTDDFGTYYCQQHYGTPYTFGGGTNLEIE
notes: Mouse monoclonal antibody from a hybridoma; also called 5005 (misprint of 50C5); murine antibody 50C5

How the values were obtained:
[1] = target: T1, recombinant human GM-CSF protein (human, UniProt P04141 18-144); assay: cell-based or functional assay
[2] = target: T1, recombinant human GM-CSF protein; assay: ELISA, human GM-CSF coated at 1 µg/ml
Experimental: (§1) Recombinant human or rhesus GM-CSF protein (Genscript) was coated at 1 μg/ml in PBS onto microtiter plates for 2 h at room temperature (RT). After coating of antigen the wells were blocked with PBS/0.05% Tween (PBST) with 1% BSA for 1 h at RT. After washing of the wells with PBST, different concentrations of anti-GM-CSF antibodies were added to the well and incubated for 1 at RT. For detection of the binding antibodies, the HRP-conjugated secondary antibodies against mouse Fc (Jackson Immuno Research) were added, followed by the addition of fluorogenic substrates (Roche). Between all incubation steps, the wells of the plate were washed with PBST three times. Fluorescence was measured in a TECAN Spectrafluor plate reader.

[3] = target: T2, recombinant rhesus GM-CSF protein (rhesus, UniProt Q9GL44 18-144); assay: ELISA, rhesus GM-CSF coated at 1 µg/ml
T2 construct: Bought recombinant protein (Genscript)
Experimental: as §1

[4] = target: T1, recombinant human GM-CSF protein; assay: SPR Biacore T200, antibody captured by anti-mouse Fc, GM-CSF as analyte, 25 C, 1:1 model
Experimental: FIG. 4 plots the binding kinetics of 23F4 and 50C5 with recombinant human GM-CSF. […] The binding kinetics assay of antibody to antigen was performed using Biacore T200 system through a mouse antibody capture approach. The anti-mouse Fc IgG were immobilized on CMS sensor chip according to the manufacturer's instruction. The test antibody was injected and captured by the immobilized anti-mouse Fc IgG. And then serial concentrations of the antigen were individually injected, and the binding profile was recorded for each concentration of antigen analyte, respectively. The assay system was regenerated by injection of 10 mM Glycine-HCL pH 1.5 for 30 seconds. The running buffer was HBS-EP+ (10 mM HEPES, pH 7.4, 150 mM NaCl, 3 mM EDTA and 0.05% P20). The assay temperature was 25° C., and the association and dissociation time were 180 and 600 seconds, respectively.

[5] = target: T1, recombinant human GM-CSF protein; assay: competition ELISA: antibody titrated with biotinylated human GM-CSF (0.05 ug/ml) on coated human GM-CSF receptor alpha (CD116); signal is GM-CSF bound to the receptor
Experimental: After coating of antigen the wells were blocked with PBS/0.05% Tween (PBST) with 1% BSA for 1 h at RT. After washing of the wells with PBST, different concentrations of anti-GM-CSF antibodies were added to the well in the presence of biotinylated human GM-CSF protein (0.05 μg/ml) and incubated for 1 hr at RT.
For detection of the binding of biotinylated GM-CSF to the coated receptor, the HRP-conjugated Streptavidin was added, followed by the addition of fluorogenic substrates (Roche). Between all incubation steps, the wells of the plate were washed with PBST three times. Fluorescence was measured in a TECAN Spectrafluor plate reader.

T1 sequence (P04141 18-144 limits assumed): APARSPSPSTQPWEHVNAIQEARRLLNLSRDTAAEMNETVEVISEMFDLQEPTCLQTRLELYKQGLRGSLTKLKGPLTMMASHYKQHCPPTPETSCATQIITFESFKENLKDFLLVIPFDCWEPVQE
T2 sequence (Q9GL44 entry or part of it limits assumed): as the sequence (P04141 18-144 limits assumed) above, with S9G, E38K, I43V, T53S, R67Q, E104Q counted along it

Row | Binder | IC50 in the inhibition of TF-1 proliferation [1] [µg/mL] | EC50 [2] [µg/mL] | EC50 [3] [µg/mL] | Kd [4] [pM] | koff [4] [s⁻¹] | kon [4] [M⁻¹ s⁻¹] | IC50 (read off the curve) [5] [µg/mL]
1 | B1 | ~0.0109 | 0.0118 | 0.0102 | 41.7 | 3.64e-05 | 872000 | ~1
2 | B2 | ~0.0109 | 0.0146 | 0.0217 | 44.3 | 0.00012 | 2.72e+06 | 
